PMC5023487 (Traffic (Copenhagen, Denmark), 2016)
Values joined by “and” are separate entries in the source; they are usually repeats but may differ in a detail not shown here. Equal values may be shown once.

Target: the molecule itself
Experiment: SEC

B1: Recombinant His6-Sec18p (enzyme, S. cerevisiae, UniProt P18759 1-758, looked up)
chain: MFKIPGFGKAAANHTPPDMTNMDTRTRHLKVSNCPNNSYALANVAAVSPNDFPNNIYIIIDNLFVFTTRHSNDIPPGTIGFNGNQRTWGGWSLNQDVQAKAFDLFKYSGKQSYLGSIDIDISFRARGKAVSTVFDQDELAKQFVRCYESQIFSPTQYLIMEFQGHFFDLKIRNVQAIDLGDIEPTSAVATGIETKGILTKQTQINFFKGRDGLVNLKSSNSLRPRSNAVIRPDFKFEDLGVGGLDKEFTKIFRRAFASRIFPPSVIEKLGISHVKGLLLYGPPGTGKTLIARKIGTMLNAKEPKIVNGPEILSKYVGSSEENIRNLFKDAEAEYRAKGEESSLHIIIFDELDSVFKQRGSRGDGTGVGDNVVNQLLAKMDGVDQLNNILVIGMTNRKDLIDSALLRPGRFEVQVEIHLPDEKGRLQIFDIQTKKMRENNMMSDDVNLAELAALTKNFSGAEIEGLVKSASSFAINKTVNIGKGATKLNTKDIAKLKVTREDFLNALNDVTPAFGISEEDLKTCVEGGMMLYSERVNSILKNGARYVRQVRESDKSRLVSLLIHGPAGSGKTALAAEIALKSGFPFIRLISPNELSGMSESAKIAYIDNTFRDAYKSPLNILVIDSLETLVDWVPIGPRFSNNILQMLKVALKRKPPQDRRLLIMTTTSAYSVLQQMDILSCFDNEIAVPNMTNLDELNNVMIESNFLDDAGRVKVINELSRSCPNFNVGIKKTLTNIETARHDEDPVNELVELMTQSA
For B1, the “stoichiometry N” value was 6 and 2.
